Data: paper PMC6358683 (Proceedings of the National Academy of Sciences of the …, 2019)

Tests used:
Assay in all cases: ELISA
HA of A/Hong Kong/1/1968 = HA of A/Hong Kong/1/1968 (influenza A virus A/Hong Kong/1/1968 …, UniProt Q91MA7)
HA of A/Japan/305+/1957 = HA of A/Japan/305+/1957 (Influenza A virus A/Japan/305/1957 …, UniProt P03451)
[1] = target: HA of A/Thailand/CU44/2006 (Influenza A virus A/Thailand/CU44/2006 …, UniProt A7LI25, strain)
[2] = target: HA of A/Solomon Islands/03/2006 (Influenza A virus A/Solomon …, UniProt A7Y8I1, strain)

Measured: binding result

B1: C05 WT (antibody, V domains shown)
VH: QVQLQESGGGLVQPGESLRLSCVGSGSSFGESTLSYYAVSWVRQAPGKGLEWLSIINAGGGDIDYADSVEGRFTISRDNSKETLYLQMTNLRVEDTGVYYCAKHMSMQQVVSAGWERADLVGDAFDVWGQGTMVTVSS
VL: DIQLTQSPSSLSASVGDRVTLTCQASQDIRKFLNWYQQKPGKGPKLLIYDASNLQRGVPSRFSGGGSGTDFTLIISSLQPEDVGTYYCQQYDGLPFTFGGGTKVVIK
binds: all assays above
